System: T1, REC2 recombinase (Ustilago maydis)
T1 sequence: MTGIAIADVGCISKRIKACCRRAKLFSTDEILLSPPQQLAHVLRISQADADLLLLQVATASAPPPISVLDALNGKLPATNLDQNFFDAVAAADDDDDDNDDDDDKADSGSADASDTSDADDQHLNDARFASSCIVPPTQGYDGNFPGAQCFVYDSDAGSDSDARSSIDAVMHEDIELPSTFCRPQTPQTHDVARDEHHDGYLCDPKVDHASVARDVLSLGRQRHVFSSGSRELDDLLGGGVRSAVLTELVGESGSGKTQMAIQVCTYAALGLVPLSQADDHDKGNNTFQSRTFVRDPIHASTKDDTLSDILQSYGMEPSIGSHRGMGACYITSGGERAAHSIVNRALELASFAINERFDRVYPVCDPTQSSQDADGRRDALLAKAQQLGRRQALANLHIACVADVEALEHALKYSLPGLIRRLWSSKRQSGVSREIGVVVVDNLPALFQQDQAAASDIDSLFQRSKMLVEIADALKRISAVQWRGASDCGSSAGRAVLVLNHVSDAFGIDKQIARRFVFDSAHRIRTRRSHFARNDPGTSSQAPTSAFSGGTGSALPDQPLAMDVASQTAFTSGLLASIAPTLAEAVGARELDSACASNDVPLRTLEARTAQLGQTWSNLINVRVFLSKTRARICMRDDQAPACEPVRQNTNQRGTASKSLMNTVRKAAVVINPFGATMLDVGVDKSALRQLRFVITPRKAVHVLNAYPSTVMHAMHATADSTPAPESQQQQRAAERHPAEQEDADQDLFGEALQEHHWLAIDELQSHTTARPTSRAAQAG
Conditions: DNA-dependent ATPase turnover; 10 mM MgCl2, pH 7.5, 37 C

## M13 single-stranded circular DNA
  activity: 5.3 min⁻¹

— patent US5780296
